Positions count from the first letter of the chain named.
B1: RA081 (nucleic acid)
DNA: GCGCGTCCTGGATTCGCGGAAACGCGTACATCCAGCTGACGAGTCCCAAGGAATACCAGCATCGTCTTGATGCCCTTGGAAGTCCATAGGACGAAACGCGC
modifications: expressed or natural sequence
B2: RA076 (nucleic acid)
DNA: GCGCGTCCTGGATTCGCGGGAGAATACCAGCATCGTCTTGATGCCCTTGGAAGTCTCAAACGCGTACATCCAGCTGACGAGTCCCAAATAGGACGAAACGCGC
modifications: expressed or natural sequence
B3: RA082 (nucleic acid)
DNA: GCGCGTCCTGGATTCGAGAATACCAGCATCGTCTTGATGCCCTTGGAAGTCTCGGAAACGCGTACATCCAGCTGACGAGTCCCAAATAGGACGAAACGCGC
modifications: expressed or natural sequence
B4: RA077 (nucleic acid)
DNA: GCGCGTCCAGTGATACCAGCATCGTCTTGATGCCCTTGGCAGCACTTGGATTCGCGGAAACGCGTACATCCAGCTGACGAGTCCCAAATAGGACGAAACGCGC
modifications: expressed or natural sequence
B5: RA089 (nucleic acid)
DNA: GCGCGTCCTGGATTCGCGGAAACGCGTACATCCAGCTGACGAGTCCCAAATAGGACCGGAATACCAGCATCGTCTTGATGCCCTTGGAAGTCCGGAAACGCGC
modifications: expressed or natural sequence
B6: RA087 (nucleic acid)
DNA: GCGCGTCCTGGATTCGCGGAAACGCGTACATCCAGCTGACGAGCGAGAATACCAGCATCGTCTTGATGCCCTTGGAAGTCTCGTCCCAAATAGGACGAAACGCGC
modifications: expressed or natural sequence
B7: RA007 (nucleic acid)
DNA: GCGCGTCCTGGATTCGCGGAAACGCGTACATCCAGCTGACGAGTCCCAAATAGGACGAAACGCGAGAATACCAGCATCGTCTTGATGCCCTTGGAAGTCTCGCGC
modifications: expressed or natural sequence
B8: RA083 (nucleic acid)
DNA: GCGCGTCCGGAATACCAGCATCGTCTTGATGCCCTTGGAAGTCCTGGATTCGCGGAAACGCGTACATCCAGCTGACGAGTCCCAAATAGGACGAAACGCGC
modifications: expressed or natural sequence
B9: RA097 (nucleic acid)
DNA: GCGCGTCCTGGATTCGCGGAAACGCGTACATCCAGCTGACGAGTCCCAGAATACCAGCATCGTCTTGATGCCCTTGGAAGTCTAAATAGGACGAAACGCGC
modifications: expressed or natural sequence
B10: RA093 (nucleic acid)
DNA: AGTGATACCAGCATCGTCTTGATGCCCTTGGCAGCACTGCGCGTCCTGGATTCGCGGAAACGCGTACATCCAGCTGACGAGTCCCAAATAGGACGAAACGCGC
modifications: expressed or natural sequence
B11: RA078 (nucleic acid)
DNA: GCGCGTCCTGGATTCGCGGAAACGCGTACATCCAGCTGACGAGTCCCAAATAGGACGAAACGCCGAGAATACCAGCATCGTCTTGATGCCCTTGGAAGTCTCGGC
modifications: expressed or natural sequence
B12: RA009 (nucleic acid)
DNA: GCGCGTCCTGGATTCGCGGAAACGCGTACATCCAGCTGACGAGTCCCAAATAGGACGACCGGAATACCAGCATCGTCTTGATGCCCTTGGAAGTCCGGAACGCGC
modifications: expressed or natural sequence
B13: RA080 (nucleic acid)
DNA: GCGCGTCCTGGATTCGGAGAATACCAGCATCGTCTTGATGCCCTTGGAAGTCTCCGGAAACGCGTACATCCAGCTGACGAGTCCCAAATAGGACGAAACGCGC
modifications: expressed or natural sequence
B14: RA086 (nucleic acid)
DNA: GCGCGTCCTGGATTCGCGGAAACGCGGAATACCAGCATCGTCTTGATGCCCTTGGAAGTCCGCGTACATCCAGCTGACGAGTCCCAAATAGGACGAAACGCGC
modifications: expressed or natural sequence
B15: RA088 (nucleic acid)
DNA: GCGCGTCCTGGATTCGCGGAAACGCGTACATCCCGAGAATACCAGCATCGTCTTGATGCCCTTGGAAGTCTCGAGCTGACGAGTCCCAAATAGGACGAAACGCGC
modifications: expressed or natural sequence
B16: RA098 (nucleic acid)
DNA: B15 DNA with G35C, A36G, T71C, C72G
modifications: expressed or natural sequence
B17: RA092 (nucleic acid)
DNA: GCGCGTCCTGGATTCGCGGAAACGCGTACATCCAGCTGACGAGTCCCAAATAGGACCGGAATACCAGCATCGTCTTGATGCCCTTGGAAGTCCGGCGAAACGCGC
modifications: expressed or natural sequence
B18: RA095 (nucleic acid)
DNA: GCGCGTCAGAATACCAGCATCGTCTTGATGCCCTTGGAAGTCTCTGGATTCGCGGAAACGCGTACATCCAGCTGACGAGTCCCAAATAGGACGAAACGCGC
modifications: expressed or natural sequence
B19: RA008 (nucleic acid)
DNA: GCGCGTCCTGGATTCGCGGAAACGGAATACCAGCATCGTCTTGATGCCCTTGGAAGTCCGCGCGTACATCCAGCTGACGAGTCCCAAATAGGACGAAACGCGC
modifications: expressed or natural sequence
B20: RA096 (nucleic acid)
DNA: GCGCGTCAGTGATACCAGCATCGTCTTGATGCCCTTGGCAGCACTCTGGATTCGCGGAAACGCGTACATCCAGCTGACGAGTCCCAAATAGGACGAAACGCGC
modifications: expressed or natural sequence
B21: RA079 (nucleic acid)
DNA: GCGCGTCCTGGATTCGCGGAAACGCGTACATCCAGCGAGAATACCAGCATCGTCTTGATGCCCTTGGAAGTCTCGCTGACGAGTCCCAAATAGGACGAAACGCGC
modifications: expressed or natural sequence
B22: RA091 (nucleic acid)
DNA: GGAATACCAGCATCGTCTTGATGCCCTTGGAAGTCCGCGCGTCCTGGATTCGCGGAAACGCGTACATCCAGCTGACGAGTCCCAAATAGGACGAAACGCGC
modifications: expressed or natural sequence
B23: RA099 (nucleic acid)
DNA: GCGCGTCCTGGATTCGCGGAAACGCGTACATAGTGATACCAGCATCGTCTTGATGCCCTTGGCAGCACTCCAGCTGACGAGTCCCAAATAGGACGAAACGCGC
modifications: expressed or natural sequence
B24: RA100 (nucleic acid)
DNA: GCGCGTCCTGGATTCGCGGAAACGCGTACATCCAGCTGACCGGAATACCAGCATCGTCTTGATGCCCTTGGAAGTCCGGAGTCCCAAATAGGACGAAACGCGC
modifications: expressed or natural sequence
B25: RA094 (nucleic acid)
DNA: GCGCGTCCTGGATTCGCGGAGGAATACCAGCATCGTCTTGATGCCCTTGGAAGTCCAACGCGTACATCCAGCTGACGAGTCCCAAATAGGACGAAACGCGC
modifications: expressed or natural sequence
B26: RA085 (nucleic acid)
DNA: GCGCGTCCTGGATTCGCGGAAACGCGTACATCCAGAATACCAGCATCGTCTTGATGCCCTTGGAAGTCTAGCTGACGAGTCCCAAATAGGACGAAACGCGC
modifications: expressed or natural sequence
B27: RA084 (nucleic acid)
DNA: GCGCGTCCTGGAGAGAATACCAGCATCGTCTTGATGCCCTTGGAAGTCTCTTCGCGGAAACGCGTACATCCAGCTGACGAGTCCCAAATAGGACGAAACGCGC
modifications: expressed or natural sequence
B28: RA090 (nucleic acid)
DNA: B27 DNA with G13A, A14G, G15T, A16G, A44C, T47C, C48A, T49C, C50T
modifications: expressed or natural sequence

Tested on: Renilla luciferase RNA
Test: Barcoded aptazyme variant library screen: un-cleaved Renilla luciferase RNA by barcode read counts, HEK293-T cells
Format: cell-based
Settings: un-cleaved Renilla luciferase RNA, HEK293-T cells cultured with 1 mM theophylline (ON) over without theophylline (OFF); barcode read counts, triplicate
How it was run: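 Barcode sequencing of cDNA versus DNA, normalized per aptazyme, gave the un-cleaved Renilla luciferase RNA fraction and fold-change with versus without theophylline (triplicates). Library: T3H48 ribozyme with one of seven theophylline aptamer variants inserted at each position, placed in the Renilla 3′ UTR of a dual-luciferase vector.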

Row | Molecule | Fold change in RNA expression between the ON state and the OFF state [fold]
1 | B1 | 1.7
2 | B2 | 1.8
3 | B3 | 1.7
4 | B4 | 1.8
5 | B5 | 1.7
6 | B6 | 1.7
7 | B7 | 4.5
8 | B8 | 1.7
9 | B9 | 1.6
10 | B10 | 1.6
11 | B11 | 1.8
12 | B12 | 3.8
13 | B13 | 1.7
14 | B14 | 1.7
15 | B15 | 1.7
16 | B16 | 1.6
17 | B17 | 1.6
18 | B18 | 1.6
19 | B19 | 4.2
20 | B20 | 1.6
21 | B21 | 1.8
22 | B22 | 1.6
23 | B23 | 1.6
24 | B24 | 1.6
25 | B25 | 1.6
26 | B26 | 1.7
27 | B27 | 1.7
28 | B28 | 1.7
